# Assay results as given in patent US20240343803A1 (SHANDONG SIMCERE BIOPHARMACEUTICAL, published 2024).
# T1: Fusion protein of extracellular domain of human TIGIT and His-tag (human TIGIT ECD-his) (human)
# T1 chain: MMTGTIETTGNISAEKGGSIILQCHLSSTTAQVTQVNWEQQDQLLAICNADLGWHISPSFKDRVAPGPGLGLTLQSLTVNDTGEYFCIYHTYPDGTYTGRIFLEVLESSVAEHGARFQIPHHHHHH
# T2: Fusion protein of extracellular domain of human TIGIT and mouse IgG2a Fc fragment (human TIGIT ECD-mFc) (human)
# T2 construct: The entry includes the signal peptide (limits not recoverable) and the mouse IgG2a Fc
# T2 chain: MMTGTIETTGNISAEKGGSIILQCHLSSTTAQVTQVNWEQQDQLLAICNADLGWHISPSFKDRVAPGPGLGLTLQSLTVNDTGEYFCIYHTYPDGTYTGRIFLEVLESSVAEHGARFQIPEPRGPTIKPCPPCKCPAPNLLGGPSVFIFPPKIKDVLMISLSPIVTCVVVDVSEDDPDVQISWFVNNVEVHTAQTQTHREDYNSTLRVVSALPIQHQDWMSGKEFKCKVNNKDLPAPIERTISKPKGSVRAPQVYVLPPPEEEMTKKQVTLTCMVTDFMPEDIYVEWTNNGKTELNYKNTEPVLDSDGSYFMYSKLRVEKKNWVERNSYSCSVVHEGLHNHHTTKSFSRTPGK
# T3: Full-length human TIGIT on CHO-K1 cells (CHO-K1 human TIGIT) (human, UniProt Q495A1 22-244)
# T3 construct: NCBI XP_024309156.1; the entry includes the signal peptide (limits not recoverable); The strain (high, medium, low) is named under assay; also called high expression strain 1D2; medium expression strain 2D10
# T3 sequence: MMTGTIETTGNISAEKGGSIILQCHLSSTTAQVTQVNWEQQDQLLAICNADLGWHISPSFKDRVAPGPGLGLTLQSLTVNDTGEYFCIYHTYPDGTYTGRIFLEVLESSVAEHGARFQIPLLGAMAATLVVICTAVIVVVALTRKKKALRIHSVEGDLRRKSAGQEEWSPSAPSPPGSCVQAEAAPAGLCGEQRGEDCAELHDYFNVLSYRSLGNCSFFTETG
# Columns and labels:
# [1] = biological target: T1, Fusion protein of extracellular domain …; test: BIAcore
# [2] = biological target: T2, Fusion protein of extracellular domain …; test: ELISA, human TIGIT ECD-mFc
# Experimental: (§1) After discarding the coating solution, the plate was added with 5% skim milk powder (Sangon Biotech, CAT #A600669-0250)-PBS, 250 μL/well, and incubated at 37° C. for 2-4 hours. […] The enzyme-labeled plate was then washed with 0.05% Tween 20-PBS for 3 times on the Microplate Washer, added with tested antibodies diluted to 13 nM with 1% BSA (diluted by 3-fold serial dilution for 12 concentration points), 50 μL/well, and incubated at 37° C. for 1.5-2 hours. The plate was washed with 0.05% Tween 20-PBS for 3 times on the Microplate Washer, then added with HRP enzyme-labeled antibodies (Merck, CAT #AP113P) diluted with 1% BSA (Sangon Biotech, CAT #A500023-0100)-PBS at a dilution ratio of 1:5000, 50 μL/well, and incubated at 37° C. for 1 hour. After washing 3 times with 0.05% Tween 20-PBS on the Microplate Washer, the plate was added with TMB chromogenic solution (KPL, CAT #52-00-03), 50 μL/well, and incubated at room temperature for 7-10 minutes. 1M HCL, 50 μL/well, was then added into the plate to terminate the reaction, and the OD450 nm was read by a microplate reader (Biotek, Powerwave HT). […] (b) The binding activity of anti-TIGIT chimeric antibodies to CHO-K1 human TIGIT (cells with high, medium and low expression levels) and CHO-KI cynomolgus monkey TIGIT detected by FACS.
# (§2) The affinity of the above humanized antibodies with human TIGIT ECD-His is detected by BIAcore, and with reference to the methods of Example 4 (a), (b), and (d), the binding activity of the above humanized antibodies to human TIGIT ECD-mFc, CHO-K1 human TIGIT, CHO-K1 cynomolgus monkey TIGIT and cynomolgus monkey TIGIT ECD-mFc, and the effect of the humanized antibodies blocking the binding between human TIGIT ECD-mFc and CHO-K1 CD155 are detected, the results are shown in Table 18.
# [3] = biological target: T1, Fusion protein of extracellular domain …; test: BIAcore; KD ratio to TIGIT-CHI-006
# [4] = biological target: T4, Fusion protein of extracellular domain of cynomolgus monkey TIGIT and mouse IgG2a Fc fragment (cynomolgus … (cynomolgus monkey)); test: ELISA, cynomolgus monkey TIGIT ECD-mFc
# T4 construct: The entry includes the signal peptide (limits not recoverable) and the mouse IgG2a Fc
# Experimental: as §1, §2
# [5] = biological target: T5, Fusion protein of extracellular domain of human TIGIT and human IgG1 Fc fragment (human TIGIT ECD-hFc) (human); test: blocking of TIGIT ECD-hFc binding to CHO-K1 CD155 cells
# T5 construct: The entry includes the signal peptide (limits not recoverable) and the human IgG1 Fc
# Method in brief: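 Cell-based ELISA on CHO-K1 CD155 cells, cultured overnight, fixed and blocked with 5% skim milk-PBS. Antibodies were premixed for 0.5 h with human TIGIT ECD-hFc (working concentration 30 ng/mL), then added and held at 37° C for 1.5-2 h. Bound TIGIT was detected with HRP secondary antibody (1:5000, 37° C, 1 h) and TMB, read as OD450 nm. IC50 came from the inhibition curves.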
# [6] = biological target: T3, Full-length human TIGIT on CHO-K1 cells …; test: cell binding, CHO-K1 human TIGIT high expression strain
# Experimental: (§3) The collected cells were washed once with PBS (Hyclone, CAT #SH30256), resuspended to 2×10⁵/50 μL with 1% BSA-PBS. The antibodies were diluted to 80 nM with 1% BSA-PBS (diluted by 3-fold serial dilution for 12 concentration points). The 50 μL cells were then mixed with 50 μL diluted antibodies, and then incubated at 4° C. for 60 minutes. […] After washing twice with PBS, the cell samples were resuspended with 1% BSA-PBS, 100 μL/well and then analyzed by flow cytometry (BD, Canto II). […] [0298] (c) The effect of anti-TIGIT chimeric antibodies blocking the interaction between Bio-CD155-His and CHO-K1 human TIGIT high expression cell strains detected by FACS
# as §2
# [7] = biological target: T6, Full-length cynomolgus monkey TIGIT on CHO-K1 cells (CHO-K1 cynomolgus monkey TIGIT) (cynomolgus monkey); test: cell binding, CHO-K1 cynomolgus monkey TIGIT
# T6 construct: NCBI XP_015300911.1
# Experimental: as §3, §2
# T6 sequence (chain, as listed by the source limits assumed): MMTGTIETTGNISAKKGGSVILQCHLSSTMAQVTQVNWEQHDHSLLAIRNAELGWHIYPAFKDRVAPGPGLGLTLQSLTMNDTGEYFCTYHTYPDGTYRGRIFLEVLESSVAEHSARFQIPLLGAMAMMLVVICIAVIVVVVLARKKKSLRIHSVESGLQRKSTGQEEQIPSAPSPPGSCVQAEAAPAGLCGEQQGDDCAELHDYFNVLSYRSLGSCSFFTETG
# T5 sequence (chain, as listed by the source limits assumed): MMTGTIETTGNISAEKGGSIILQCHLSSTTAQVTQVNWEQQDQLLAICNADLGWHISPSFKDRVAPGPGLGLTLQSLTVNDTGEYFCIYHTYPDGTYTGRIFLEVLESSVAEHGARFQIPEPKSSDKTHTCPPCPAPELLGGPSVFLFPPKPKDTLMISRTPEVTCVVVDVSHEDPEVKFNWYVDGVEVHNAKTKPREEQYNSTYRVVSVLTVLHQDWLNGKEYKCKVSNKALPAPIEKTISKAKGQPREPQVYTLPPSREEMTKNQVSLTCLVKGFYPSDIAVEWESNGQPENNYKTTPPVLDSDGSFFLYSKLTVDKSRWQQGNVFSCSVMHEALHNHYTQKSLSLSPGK
Binder,Kd [1] [nM],koff [1] [s⁻¹],kon [1] [M⁻¹ s⁻¹],EC50 [2] [nM],Fold change vs chimeric antibodies (KD) [3] [fold],EC50 [4] [nM],IC50 [5] [nM],EC50 [6] [nM],EC50 [7] [nM],binding result [4],binding result [7]
"TIGIT-006-H3L1 (antibody, V domains shown, Humanized anti-TIGIT antibody) VH: EVQLQESGPGLVKPSETLSLTCAVSGYSMTSDYWNWIRQPPGKKLEWIGYISYSGRTYYNPSLKSRVTISRDTSKNQFSLKLSSVTAADTAVYYCARGDYSNYGGAMYDWGQGTTVTVSS VL: DIVMTQTPLSLSVTPGQPASISCRASQGVSTTIAWYLQKPGQSPQLLIYSASYRYTGVPDRFSGSGSGTDFTLKISRVEAEDVGVYYCQQYYSSPFTFGGGTKVEIK",0.705,0.000241,342000,0.0096,9.11,2.81,0.637,0.0468,,,
"TIGIT-006-H3L2 (antibody, V domains shown, Humanized anti-TIGIT antibody) VH: EVQLQESGPGLVKPSETLSLTCAVSGYSMTSDYWNWIRQPPGKKLEWIGYISYSGRTYYNPSLKSRVTISRDTSKNQFSLKLSSVTAADTAVYYCARGDYSNYGGAMYDWGQGTTVTVSS VL: DIVMTQTPLSLSVTPGQPASISCRASQGVSTTIAWYQQKPGQSPKLLIYSASYRYTGVPDRFSGSGSGTDFTLKISRVEAEDVGVYYCQQYYSSPFTFGGGTKVEIK",0.748,0.000208,279000,0.0099,9.66,7.44,0.709,0.0494,1.38,,
"TIGIT-006-H4L1 (antibody, V domains shown, Humanized anti-TIGIT antibody) VH: EVQLQESGPGLVKPSETLSLTCAVSGYSMTSDYWNWIRQPPGKKLEWMGYISYSGRTYYNPSLKSRITISRDTSKNQFSLKLSSVTAADTAVYYCARGDYSNYGGAMYDWGQGTTVTVSS VL: DIVMTQTPLSLSVTPGQPASISCRASQGVSTTIAWYLQKPGQSPQLLIYSASYRYTGVPDRFSGSGSGTDFTLKISRVEAEDVGVYYCQQYYSSPFTFGGGTKVEIK",0.657,0.000258,393000,0.0086,8.49,1.53,0.704,0.0349,,,
"TIGIT-006-H4L2 (antibody, V domains shown, Humanized anti-TIGIT antibody) VH: EVQLQESGPGLVKPSETLSLTCAVSGYSMTSDYWNWIRQPPGKKLEWMGYISYSGRTYYNPSLKSRITISRDTSKNQFSLKLSSVTAADTAVYYCARGDYSNYGGAMYDWGQGTTVTVSS VL: DIVMTQTPLSLSVTPGQPASISCRASQGVSTTIAWYQQKPGQSPKLLIYSASYRYTGVPDRFSGSGSGTDFTLKISRVEAEDVGVYYCQQYYSSPFTFGGGTKVEIK",0.658,0.000221,337000,0.0113,8.5,0.997,0.671,0.0251,,,

# The remaining binders from weak to strong by Kd [1], led by results:
Kd [1] [nM],koff [1] [s⁻¹],kon [1] [M⁻¹ s⁻¹],EC50 [2] [nM],Fold change vs chimeric antibodies (KD) [3] [fold],EC50 [4] [nM],IC50 [5] [nM],EC50 [6] [nM],EC50 [7] [nM],binding result [4],binding result [7],Binder
6.21,0.000757,122000,0.0186,80.3,,1.53,0.0702,,no binding,no binding,"TIGIT-006-H1L1 (antibody, V domains shown, Humanized anti-TIGIT antibody) VH: EVQLQESGPGLVKPSETLSLTCAVSGYSITSDYWNWIRQPPGKGLEWIGYISYSGRTYYNPSLKSRVTISRDTSKNQFSLKLSSVTAADTAVYYCARGDYSNYGGAMYDWGQGTTVTVSS VL: DIVMTQTPLSLSVTPGQPASISCRASQGVSTTIAWYLQKPGQSPQLLIYSASYRYTGVPDRFSGSGSGTDFTLKISRVEAEDVGVYYCQQYYSSPFTFGGGTKVEIK"
5.71,0.000666,117000,0.0183,73.8,,1.58,0.105,,no binding,no binding,"TIGIT-006-H1L2 (antibody, V domains shown, Humanized anti-TIGIT antibody) VH: EVQLQESGPGLVKPSETLSLTCAVSGYSITSDYWNWIRQPPGKGLEWIGYISYSGRTYYNPSLKSRVTISRDTSKNQFSLKLSSVTAADTAVYYCARGDYSNYGGAMYDWGQGTTVTVSS VL: DIVMTQTPLSLSVTPGQPASISCRASQGVSTTIAWYQQKPGQSPKLLIYSASYRYTGVPDRFSGSGSGTDFTLKISRVEAEDVGVYYCQQYYSSPFTFGGGTKVEIK"
0.95,0.000382,403000,0.0106,12.3,2.88,0.528,0.0383,0.342,,,"TIGIT-006-H2L1 (antibody, V domains shown, Humanized anti-TIGIT antibody) VH: EVQLQESGPGLVKPSETLSLTCAVSGYSMTSDYWNWIRQPPGKGLEWIGYISYSGRTYYNPSLKSRVTISRDTSKNQFSLKLSSVTAADTAVYYCARGDYSNYGGAMYDWGQGTTVTVSS VL: DIVMTQTPLSLSVTPGQPASISCRASQGVSTTIAWYLQKPGQSPQLLIYSASYRYTGVPDRFSGSGSGTDFTLKISRVEAEDVGVYYCQQYYSSPFTFGGGTKVEIK"
0.893,0.000324,363000,0.0117,11.5,3.38,0.904,0.0444,,,,"TIGIT-006-H2L2 (antibody, V domains shown, Humanized anti-TIGIT antibody) VH: EVQLQESGPGLVKPSETLSLTCAVSGYSMTSDYWNWIRQPPGKGLEWIGYISYSGRTYYNPSLKSRVTISRDTSKNQFSLKLSSVTAADTAVYYCARGDYSNYGGAMYDWGQGTTVTVSS VL: DIVMTQTPLSLSVTPGQPASISCRASQGVSTTIAWYQQKPGQSPKLLIYSASYRYTGVPDRFSGSGSGTDFTLKISRVEAEDVGVYYCQQYYSSPFTFGGGTKVEIK"
